Assay results taken from PMC4508888.
One block for each molecule: values may come before it.

Columns and labels:
Test in all cases: co-IP
EGFP-Myo1b (rat) = EGFP-Myo1b (rat) (UniProt Q05096)
EGFP-Myo1b motor (rat) = target: EGFP-Myo1b motor (rat)
EGFP-Myo1b-Tail (rat) = target: EGFP-Myo1b-Tail (rat)
Flag-EphB2-KD = Flag-EphB2-KD (UniProt P54763)

percent of Flag-EphB2 co-precipitated with EGFP-Myo1b after genistein treatment (EGFP-Myo1b (rat)): 29%
percent of Flag-EphB2 pulled down against EGFP-Myo1b (EGFP-Myo1b motor (rat)): 50%
fold of Flag-EphB2 pulled down against EGFP-Myo1b (EGFP-Myo1b-Tail (rat)): > 2 fold
Molecule: Flag-EphB2 (from UniProt P54763 19-986) (receptor)

percent of EGFP-Myo1b co-precipitated against Flag-EphB2 (Flag-EphB2-KD): 16%
B1: EGFP-Myo1b (natural protein)
chain: MAKKEVKSSLLDNMIGVGDTVLLEPLNEETFIDNLKKRFDHNEIYTYIGSVVISVNPYRSLPIYSPEKVEDYRNRNFYELSPHIFALSDEAYRSLRDQDKDQCILITGESGAGKTEASKLVMSYVAAVCGKGAEVNQVKEQLLQSTPVLEAFGNAKTVRNDNSSRFGKYMDIEFDFKGDPLGGVISNYLLEKSRVVKQPRGERNFHVFYQLLSGASEELLHKLKLERDFSRYNYLSLDSAKVNGVDDAANFRTVRNAMQIVGFSDPEAESVLEVVAAVLKLGNIEFKPESRMNGLDESKIKDKNELKEICELTSIDQVVLERAFSFRTVEAKQEKVSTTLNVAQAYYARDALAKNLYSRLFSWLVNRINESIKAQTKVRKKVMGVLDIYGFEIFEDNSFEQFIINYCNEKLQQIFIELTLKEEQEEYIREDIEWTHIDYFNNAIICDLIENNTNGILAMLDEECLRPGTVTDETFLEKLNQVCATHQHFESRMSKCSRFLNDTTLPHSCFRIQHYAGKVLYQVEGFVDKNNDLLYRDLSQAMWKAGHALIKSLFPEGNPAKVNLKRPPTAGSQFKASVATLMKNLQTKNPNYIRCIKPNDKKAAHIFSESLVCHQIRYLGLLENVRVRRAGYAFRQAYEPCLERYKMLCKQTWPHWKGPARSGVEVLFNELEIPVEEYSFGRSKIFIRNPRTLFQLEDLRKQRLEDLATLIQKIYRGWKCRTHFLLMKRSQVVIAAWYRRYAQQKRYQQIKSSALVIQSYIRGWKARKILRELKHQKRCKEAATTIAAYWHGTQARKERRRLKDEARNKHAIAVIWAFWLGSKARRELKRLKEEARRKHAVAVIWAYWLGLKVRREYRKFFRANAGKKIYEFTLQRIVQKYLLEMKNKMPSLSPIDKNWPSRPYLFLDSTHKELKRIFHLWRCKKYRDQFTDQQKLIYEEKLEASELFKDKKALYPSSVGQPFQGAYLEINKNPKYKKLKDAIEEKIIIAEVVNKINRANGKSTSRIFLLTNNNLLLADQKSGQIKSEVPLVDVTKVSMSSQNDGFFAVHLKEGSEAASKGDFLFSSDHLIEMATKLYRTTLSQTKQKLNIEISDEFLVQFRQDKVCVKFIQGNQKNGSVPTCKRKNNRLLEVAVP
